From patent US20170145086A1 (VISTERRA, published 2017) come the findings set out here.

Several values for one entry are separate records, joined by “and”; a condition that tells them apart may be missing. Identical values can stand only once.

Experiment [1] concerns the target T1, HA-GCN4 hAPRIL (amino acid residues 105-250) (human, UniProt O75888 105-250).
T1 construct: Bought (R&D Systems); also called HA-tagged GCN4 human APRIL; HA-GCN4-huAPRIL; not shown: N-terminal HA tag; GCN4 isoleucine zipper oligomerization domain
T1 sequence: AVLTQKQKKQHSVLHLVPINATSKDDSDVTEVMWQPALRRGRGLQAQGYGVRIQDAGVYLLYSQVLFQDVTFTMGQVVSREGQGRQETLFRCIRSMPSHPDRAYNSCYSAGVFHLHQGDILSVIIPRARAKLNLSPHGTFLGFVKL
Description: blocking ELISA; blocked: human APRIL binding to human TACI-Fc. The arrangement: concentration or dose not given beside the values. Here is the method:
(§1) Recombinant TACI-Fc or BCMA-Fc was coated on 96 well plates in 0.1 M carbonate-bicarbonate buffer (pH 9.6), overnight at 4° C. Plates were washed three times with 1×PBST (PBS+0.025% Tween 20) followed by blocking with 1% BSA in 1×PBS, 37° C. for 1 hour. All subsequent wash steps were carried out with 1×PBST. To assess antibody blocking, either 15 ng/mL or 50 ng/mL HA-GCN4-huAPRIL was preincubated with varying antibody concentrations ranging from 0.03-30 μg/mL in binding buffer comprised of 1% BSA and 0.025% Tween-20 in 1×PBS. Preincubation was carried out at 30° C. for 1 hour with mixing. Antibody-APRIL premix with 50 ng/mL APRIL or 15 ng/mL APRIL was then added to TACI-Fc coated or BCMA-Fc coated plates, respectively, and incubated for an additional hour at 30° C. HA-tagged APRIL binding to either receptor was quantified using a goat polyclonal anti-HA tag-HRP antibody (Abcam) added at a 1:10000 dilution followed by colorimetric development using 100 μl/well of freshly prepared TMB substrate (KPL) carried out for up to 30 minutes at room temperature before quenching enzymatic reaction by the addition of 1N sulfuric acid. ELISA signal was quantified by absorbance at 450 nm. ELISA data was analyzed by non-linear regression. IC₅₀ values were calculated based on a 4 parameter fit of antibody titration curves. […] Non-blocking antibodies Aprly-1 or Aprly-5 (Enzo Biosciences) were used as negative controls. Mouse specific, blocking antibody aprily-1-1 (Adipogen) was generally used as a positive control in experiments using mouse APRIL (HA-GCN4-mAPRIL).

Experiment [2] deals with T1, HA-GCN4 hAPRIL (amino acid residues …). As to the kind of experiment: blocking ELISA, 4-parameter fit; blocked: human APRIL binding to human TACI-Fc. As to the method: as §1
For experiment [3] the target is unchanged. Description: blocking ELISA, 4-parameter fit; blocked: human APRIL binding to human BCMA-Fc. As to the method:
as §1

The target is the same in experiment [4]. As to the kind of experiment: competition ELISA: antibody titrated against human APRIL, read-out APRIL bound to coated human TACI-Fc. Here is the method: Mouse specific antibody Apry-1-1 (Adipogen) was likewise used for quantification of antibody binding to mouse APRIL.
Recombinant TACI-Fc or BCMA-Fc was coated on 96 well plates in 0.1 M carbonate-bicarbonate buffer (pH 9.6), overnight at 4° C. Plates were washed three times with 1×PBST (PBS+0.025% Tween 20) followed by blocking with 1% BSA in 1×PBS, 37° C. for 1 hour. All subsequent wash steps were carried out with 1×PBST. To assess antibody blocking, either 15 ng/mL or 50 ng/mL HA-GCN4-huAPRIL was preincubated with varying antibody concentrations ranging from 0.03-30 μg/mL in binding buffer comprised of 1% BSA and 0.025% Tween-20 in 1×PBS. Preincubation was carried out at 30° C. for 1 hour with mixing. […] HA-tagged APRIL binding to either receptor was quantified using a goat polyclonal anti-HA tag-HRP antibody (Abcam) added at a 1:10000 dilution followed by colorimetric development using 100 μl/well of freshly prepared TMB substrate (KPL) carried out for up to 30 minutes at room temperature before quenching enzymatic reaction by the addition of 1N sulfuric acid. ELISA signal was quantified by absorbance at 450 nm. ELISA data was analyzed by non-linear regression. IC₅₀ values were calculated based on a 4 parameter fit of antibody titration curves. […]

The target is the same in experiment [5]. As to the kind of experiment: indirect ELISA on HA-GCN4 human APRIL, 3-parameter fit. As to the method: FIG. 5 depicts the binding of anti-APRIL antibodies to human APRIL. Relative binding of select anti-APRIL antibodies was measured by indirect ELISA. Select antibodies based on prior hybridoma screening were recombinantly produced (based on immunoglubin VH and VL gene sequencing) as described. HA-tagged GCN4 human APRIL R&D Systems was used as source of APRIL. Binding data was analyzed by non-linear regression using a three parameter fit.
(§2) Purified antibodies were further characterized for APRIL binding, APRIL species cross reactivity (human APRIL vs. mouse APRIL), and receptor blocking activity using TACI-Fc. For binding, an APRIL-based indirect ELISA was used to determine by first approximation the relative affinity of purified anti-APRIL antibodies to either human APRIL or mouse APRIL. ELISA method was as generally described above. […] Blocking and wash steps were completed as described. Binding of anti-APRIL antibodies to APRIL was quantified using an 8 point dilution of test antibody that spanned over a four log scale. Antibody binding to APRIL was detected using a rabbit anti-mouse IgG (H+L)-HRP conjugate (Jackson ImmunoResearch Laboratories). Antibody binding data was analyzed by non-linear regression analysis using a 3 parameter fit to determine max binding and apparent EC₅₀ values. […] Mouse specific antibody Apry-1-1 (Adipogen) was likewise used for quantification of antibody binding to mouse APRIL.

Experiment [6] shares this target. Description: blocking ELISA; blocked: human APRIL binding to human BCMA-Fc. The arrangement: concentration or dose not given beside the values. As to the method: as §1
For experiment [7] the target is unchanged. Description: indirect ELISA on coated HA-GCN4 human APRIL; EC50 from non-linear regression.
From the text: as §2

The target of experiment [8] is T2, HA-GCN4 mAPRIL (amino acid residues 96-241) (mouse, UniProt Q9D777 96-241, Assembles as a homotrimer through the GCN4 zipper; one protomer is given.).
T2 construct: Bought (R&D Systems); also called HA-tagged mouse APRIL (R&D Systems); recombinant mouse APRIL; not shown: N-terminal HA tag and GCN4 isoleucine-zipper trimerisation domain, with any linker, of the bought R&D Systems protein
T2 sequence: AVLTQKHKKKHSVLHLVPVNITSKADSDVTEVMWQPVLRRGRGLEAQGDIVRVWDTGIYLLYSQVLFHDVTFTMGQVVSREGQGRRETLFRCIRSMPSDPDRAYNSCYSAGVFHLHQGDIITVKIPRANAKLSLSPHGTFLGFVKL
As to the kind of experiment: blocking ELISA; blocked: mouse APRIL binding to human BCMA-Fc. Here is the method:
Recombinant TACI-Fc or BCMA-Fc was coated on 96 well plates in 0.1 M carbonate-bicarbonate buffer (pH 9.6), overnight at 4° C. Plates were washed three times with 1×PBST (PBS+0.025% Tween 20) followed by blocking with 1% BSA in 1×PBS, 37° C. for 1 hour. All subsequent wash steps were carried out with 1×PBST. To assess antibody blocking, either 15 ng/mL or 50 ng/mL HA-GCN4-huAPRIL was preincubated with varying antibody concentrations ranging from 0.03-30 μg/mL in binding buffer comprised of 1% BSA and 0.025% Tween-20 in 1×PBS. Preincubation was carried out at 30° C. for 1 hour with mixing. Antibody-APRIL premix with 50 ng/mL APRIL or 15 ng/mL APRIL was then added to TACI-Fc coated or BCMA-Fc coated plates, respectively, and incubated for an additional hour at 30° C. HA-tagged APRIL binding to either receptor was quantified using a goat polyclonal anti-HA tag-HRP antibody (Abcam) added at a 1:10000 dilution followed by colorimetric development using 100 μl/well of freshly prepared TMB substrate (KPL) carried out for up to 30 minutes at room temperature before quenching enzymatic reaction by the addition of 1N sulfuric acid. ELISA signal was quantified by absorbance at 450 nm. ELISA data was analyzed by non-linear regression. IC₅₀ values were calculated based on a 4 parameter fit of antibody titration curves. […]

B1: monoclonal antibody 2922 (antibody, mouse IgG2, V domains shown)
VH: QVQLHQSGPELVKPGASVKLSCKTSGYTFTSYDVFWVKQRPGQGLEWIGWIYPRDSSTKYNEKFKGKATLTVDTSSSTAYMELHSLTSEDSAVYFCAKEGYDYDKRGFDYWGQGTTLTVSS
VL: DIVLTQSPASLAVSLGQRAIISCKASQSVSFAGTNLMHWYQQRPGQQPKLLIYRASNLEPGVPTRFSGSGSRTDFTLNIHPVEEDDAATYYCQQSREYPWTFGGGTKLEIK
B1: the “% Inhibition” value in experiment [1] and in experiment [6] was 97% in each case. The IC50 in experiment [2] is 31.6 nM; in experiment [3] it was 22 nM; in experiment [4], above 10 nM. In addition, the EC50 in experiment [5] was 0.0713 µg/mL and 0.482 nM.

B2: monoclonal antibody 3125 (antibody, mouse IgG2, V domains shown)
VH: QVQLQQSGAELVRPGASVTLSCKASGYTFTDYEMHWVKQTPVHGLEWIGAIDPETGGTAYNQRFKGKAILTTDKSSITAYMELRSLTSEDSAVYYCTRWNDGDYWGQGTTLTVSS
VL: DVVMTQTPLSLSVTIGQPASISCKSSQSLLYSNGKTYLNWFQQRPGQSPKRLMYQVSKLDPGIPDRFSGSGSETDFTLKISRVEAEDLGLYYCLQGTYYPYTFGGGTKLEIK
Regarding B2, the “% Inhibition” value in experiment [1] was 52%; in experiment [6], below 10%. Moreover, the IC50 was 113 nM in experiment [2] and above 10 nM in experiment [4]. The concentration giving a half-maximal response (EC50) in experiment [7] is above 1 nM; in experiment [5] it was 0.281 µg/mL and 1.9 nM.

B3: monoclonal antibody 3525 (antibody, mouse IgG2, V domains shown)
VH: QVQLQQSGAELVRPGASVKLSCKASGYTFTDHEMHWVRQTPVHGLEWIGVIDPDTGDTTYNQKFKGKATLTADKSSSTAYMDLRSLTSEDSAVFYCTRWTGGDYWGHGTTLTVSS
VL: DVVMTQTPLSLSVTIGQPASISCKSSQSLLYSNGKTYLNWFQQRPGQSPKRLMYQVSKLDPGIPDRFSGSGSETDFTLKISRVEAEDLGLYYCLQGTYYPYTFGGGTKLEIK
On to B3, for which the “% Inhibition” value amounted to 86% in experiment [1] and 48% in experiment [6]. Moreover, the IC50 in experiment [2] was 4.05 nM; in experiment [3], 0.85 nM. In experiment [8], the “IC50 (read off the curve)” value is around 0.3 µg/mL. Also, in experiment [5], the EC50 is 0.0534 µg/mL and 0.361 nM.

B4: monoclonal antibody 2621 (antibody, mouse IgG2, V domains shown)
VH: EVQLQQSGAELVRPGSSVKMSCKTSGYTFTSYGINWVKQRPGQGLEWIGYIYIGNGYAEYNERFKGKATLTSDTSSSTAYMQLSSLTSEDSAIYFCALYYPWFTYWGQGTLVTVSA
VL: DIQMTQSPASLSASVGDSVTITCRASENIYSYLAWYQQKQGKSPQLLVYNAKTLAEGVPSRFSGSGSGTQFSLKINSLQPEDFGNYYCQHHYDTPFTFGGGTKLEIK
B4: the entries for the “% Inhibition” value in experiment [1] and in experiment [6] were 79% and 0%, respectively. This molecule also yielded an IC50 in experiment [2] of 1 nM. Moreover, the concentration giving a half-maximal response (EC50) was below 0.2 nM in experiment [7]; 0.0143 µg/mL and 0.097 nM in experiment [5].
